According to patent US20240200091A1, “USE OF PROTOPORPHYRINOGEN OXIDASE” (BEIJING DABEINONG BIOTECHNOLOGY CO., LTD., priority 2021, published 2024):

How the values were obtained:
Assay type in all cases: in vivo
transgenic maize plants [1] = assay: flumioxazin tolerance of transgenic maize plants (spray, grade of pesticide damage); conditions: for The grade of pesticide damage/plant: number of plants of grade 0 / The grade of pesticide damage/plant: number of plants of grade 1 / The grade of pesticide damage/plant: number of plants of grade 2 / The grade of pesticide damage/plant: number of plants of grade 3: 7 DAT, 16 maize plants per genotype; for tolerance to flumioxazin: maize, flumioxazin at different concentrations (120 and 240 g ai/ha)
transgenic maize plants [2] = assay: oxyfluorfen tolerance of transgenic maize plants (spray, grade of pesticide damage); conditions: for tolerance to oxyfluorfen: maize; for The grade of pesticide damage/plant: number of plants of grade 0 / The grade of pesticide damage/plant: number of plants of grade 1 / The grade of pesticide damage/plant: number of plants of grade 2 / The grade of pesticide damage/plant: number of plants of grade 3: 7 DAT, 16 maize plants per genotype
transgenic maize plants [3] = assay: saflufenacil tolerance of transgenic maize plants (spray, grade of pesticide damage); conditions: for tolerance to saflufenacil: maize; for The grade of pesticide damage/plant: number of plants of grade 0 / The grade of pesticide damage/plant: number of plants of grade 1 / The grade of pesticide damage/plant: number of plants of grade 2 / The grade of pesticide damage/plant: number of plants of grade 3: 7 DAT, 16 maize plants per genotype
[4] = flumioxazin 120 g ai/ha (2x field concentration)
[5] = flumioxazin 240 g ai/ha (4x field concentration)
[6] = oxyfluorfen at four-fold field concentration (720 g ai/ha)
[7] = oxyfluorfen at two-fold field concentration (360 g ai/ha)
[8] = oxyfluorfen 360 g ai/ha (2x field concentration)
[9] = oxyfluorfen 720 g ai/ha (4x field concentration)
[10] = saflufenacil at four-fold field concentration (100 g ai/ha)
[11] = saflufenacil at two-fold field concentration (50 g ai/ha)
[12] = saflufenacil 50 g ai/ha (2x field concentration)
[13] = saflufenacil 100 g ai/ha (4x field concentration)

Molecule | The grade of pesticide damage/plant: number of plants of grade 0 (transgenic maize plants [1]; [4]) | The grade of pesticide damage/plant: number of plants of grade 1 (transgenic maize plants [1]; [4]) | The grade of pesticide damage/plant: number of plants of grade 2 (transgenic maize plants [1]; [4]) | The grade of pesticide damage/plant: number of plants of grade 3 (transgenic maize plants [1]; [4]) | The grade of pesticide damage/plant: number of plants of grade 0 (transgenic maize plants [1]; [5]) | The grade of pesticide damage/plant: number of plants of grade 1 (transgenic maize plants [1]; [5]) | The grade of pesticide damage/plant: number of plants of grade 2 (transgenic maize plants [1]; [5]) | The grade of pesticide damage/plant: number of plants of grade 3 (transgenic maize plants [1]; [5]) | tolerance to flumioxazin (transgenic maize plants [1]) | tolerance to oxyfluorfen (transgenic maize plants [2]; [6]) | tolerance to oxyfluorfen (transgenic maize plants [2]; [7]) | The grade of pesticide damage/plant: number of plants of grade 0 (transgenic maize plants [2]; [8]) | The grade of pesticide damage/plant: number of plants of grade 1 (transgenic maize plants [2]; [8]) | The grade of pesticide damage/plant: number of plants of grade 2 (transgenic maize plants [2]; [8]) | The grade of pesticide damage/plant: number of plants of grade 3 (transgenic maize plants [2]; [8]) | The grade of pesticide damage/plant: number of plants of grade 0 (transgenic maize plants [2]; [9]) | The grade of pesticide damage/plant: number of plants of grade 1 (transgenic maize plants [2]; [9]) | The grade of pesticide damage/plant: number of plants of grade 2 (transgenic maize plants [2]; [9]) | The grade of pesticide damage/plant: number of plants of grade 3 (transgenic maize plants [2]; [9]) | tolerance to saflufenacil (transgenic maize plants [3]; [10]) | also measured
PPO6B: nucleotide sequence encoding protoporphyrinogen oxidase PPO6, maize common codon usage bias (nucleic acid, The nucleotide sequence of PPO6B) DNA: ATGTCAAGTCCCAACGGGAAGTACCTTATGCTGTATAGCACGACTGATGGACACACCAAGACAATAATGGACACCATGGCGAAGCACATTATGGAAGAGGCCAAAGTTCAGTGCGACGTCGTAGACATGAGGGACGGGGACAAGTATGAACTTGCGGCTTACGAGAAGGTCATGCTCGGCGCCTCCATAAGGTACGGCTTCTTCAGCCGCACCTTGCATACATATACTACCCATCATGTTGATGAGCTTAACTCCATGCCATCGGCATTCTTTGGTGTTAATTTAACGGCGCGGAAAACTAGCAAGAACACAGCCATGACCAATGCTTATACACGGAAATTCCTGGATCAATCTATGTGGGTGCCACAGCTGAGTGGGGTCTTCGCCGGTGCACTCTGGTACCCCCGCTACAACTTTTTTGATCGAGTGATGATCCAGTTCATCATGAAGGTGACGGGCGGCGAAACAAATACTACAAAAGAGATCGTCTACACGGACTGGGATGCAGTGCACAAGTTTGCTACTGACTTCGTCCAACTCCCTGCCACCGCCATTCCAAGATCTAAACCTGCTACGTCGGTGCCGCCGGCGTCAGTAGCAAACTATGATAATGGTGCTCGTGTTGCGCTGGTGGTGGTTGGAATTTCTGCAGCCATCATCTTCGGCCGCAGGCTAATTTTGGCCAAGAGATTTTGA | 16 | 0 | 0 | 0 | 16 | 0 | 0 | 0 | high-resistant tolerance | high-resistant tolerance | high-resistant tolerance | 16 | 0 | 0 | 0 | 16 | 0 | 0 | 0 | high-resistant tolerance | tolerance to saflufenacil (transgenic maize plants [3]; [11]): high-resistant tolerance; The grade of pesticide damage/plant: number of plants of grade 0 (transgenic maize plants [3]; [12]): 16; The grade of pesticide damage/plant: number of plants of grade 1 (transgenic maize plants [3]; [12]): 0; The grade of pesticide damage/plant: number of plants of grade 2 (transgenic maize plants [3]; [12]): 0; The grade of pesticide damage/plant: number of plants of grade 3 (transgenic maize plants [3]; [12]): 0; The grade of pesticide damage/plant: number of plants of grade 0 (transgenic maize plants [3]; [13]): 16; The grade of pesticide damage/plant: number of plants of grade 1 (transgenic maize plants [3]; [13]): 0; The grade of pesticide damage/plant: number of plants of grade 2 (transgenic maize plants [3]; [13]): 0; The grade of pesticide damage/plant: number of plants of grade 3 (transgenic maize plants [3]; [13]): 0
PPO1B: nucleotide sequence encoding protoporphyrinogen oxidase PPO1, maize common codon usage bias (nucleic acid, The nucleotide sequence of PPO1B) DNA: ATGAAAGCGTTGGTTCTTTACAGTACAAGAGATGGTCAGACCCACGCCATTGCGAGCTATATCGCAAACTGCATGAAGGAGAAGTATGAATGTGACGTCATTGATCTCTTGCACGCGCAGCATGTCACCCTTAGCCGCTACGACAAGGTCCTTGTTGGGGCATCGATACGCTATGGCCATTTCAACGCCGTGCTGGACAAATTTGTTAAGCAGAATATACAACAGCTGAACTCCATGCCTTCTGCATTCTTCGCGGTAAATCTGACCGCTCGTAAGCCAGAAAAAAGGACACCACAAACAAATTCATACGTCAGAAAGTTCCTCCTAGGAACGCCGTGGAAGCCCGCCATGTGCGGTGTTTTTGCTGGCGCCTTGCGATACCCTCGGTATCGGTGGGTGGACAAGGTGATGATCCAATTAATCATGAGGATGACGGGGGGCGAGACTGATACTTCTAAAGAAGTGGAGTACACTGATTGGGAGCAGGTGAAAAAATTTGCTGAGGACTTCGGAAAGCTCTCCTACAAGAAGACGCTGTGA | 16 | 0 | 0 | 0 | 16 | 0 | 0 | 0 | high-resistant tolerance | high-resistant tolerance | high-resistant tolerance | 16 | 0 | 0 | 0 | 16 | 0 | 0 | 0 | high-resistant tolerance | tolerance to saflufenacil (transgenic maize plants [3]; [11]): high-resistant tolerance; The grade of pesticide damage/plant: number of plants of grade 0 (transgenic maize plants [3]; [12]): 16; The grade of pesticide damage/plant: number of plants of grade 1 (transgenic maize plants [3]; [12]): 0; The grade of pesticide damage/plant: number of plants of grade 2 (transgenic maize plants [3]; [12]): 0; The grade of pesticide damage/plant: number of plants of grade 3 (transgenic maize plants [3]; [12]): 0; The grade of pesticide damage/plant: number of plants of grade 0 (transgenic maize plants [3]; [13]): 16; The grade of pesticide damage/plant: number of plants of grade 1 (transgenic maize plants [3]; [13]): 0; The grade of pesticide damage/plant: number of plants of grade 2 (transgenic maize plants [3]; [13]): 0; The grade of pesticide damage/plant: number of plants of grade 3 (transgenic maize plants [3]; [13]): 0
